Our source for the EC50 values is patent US20240239875A1 (published 2024).

Holding throughout (assay): ELISA
A general note: In an ELISA, binding on a coated surface is turned into a signal by an enzyme label.

Assay [1] has as its target SARS-CoV-2 receptor binding domain (UniProt P0DTC2 319-541).
Assay [2] concerns the target SARS-CoV-2 prefusion stabilized trimer protein (WIV02 isolate spike protein) (UniProt P0DTC2 14-1213).
The target of assay [3] is T1, HKU1 spike protein (HCoV-HKU1).
T1 chain: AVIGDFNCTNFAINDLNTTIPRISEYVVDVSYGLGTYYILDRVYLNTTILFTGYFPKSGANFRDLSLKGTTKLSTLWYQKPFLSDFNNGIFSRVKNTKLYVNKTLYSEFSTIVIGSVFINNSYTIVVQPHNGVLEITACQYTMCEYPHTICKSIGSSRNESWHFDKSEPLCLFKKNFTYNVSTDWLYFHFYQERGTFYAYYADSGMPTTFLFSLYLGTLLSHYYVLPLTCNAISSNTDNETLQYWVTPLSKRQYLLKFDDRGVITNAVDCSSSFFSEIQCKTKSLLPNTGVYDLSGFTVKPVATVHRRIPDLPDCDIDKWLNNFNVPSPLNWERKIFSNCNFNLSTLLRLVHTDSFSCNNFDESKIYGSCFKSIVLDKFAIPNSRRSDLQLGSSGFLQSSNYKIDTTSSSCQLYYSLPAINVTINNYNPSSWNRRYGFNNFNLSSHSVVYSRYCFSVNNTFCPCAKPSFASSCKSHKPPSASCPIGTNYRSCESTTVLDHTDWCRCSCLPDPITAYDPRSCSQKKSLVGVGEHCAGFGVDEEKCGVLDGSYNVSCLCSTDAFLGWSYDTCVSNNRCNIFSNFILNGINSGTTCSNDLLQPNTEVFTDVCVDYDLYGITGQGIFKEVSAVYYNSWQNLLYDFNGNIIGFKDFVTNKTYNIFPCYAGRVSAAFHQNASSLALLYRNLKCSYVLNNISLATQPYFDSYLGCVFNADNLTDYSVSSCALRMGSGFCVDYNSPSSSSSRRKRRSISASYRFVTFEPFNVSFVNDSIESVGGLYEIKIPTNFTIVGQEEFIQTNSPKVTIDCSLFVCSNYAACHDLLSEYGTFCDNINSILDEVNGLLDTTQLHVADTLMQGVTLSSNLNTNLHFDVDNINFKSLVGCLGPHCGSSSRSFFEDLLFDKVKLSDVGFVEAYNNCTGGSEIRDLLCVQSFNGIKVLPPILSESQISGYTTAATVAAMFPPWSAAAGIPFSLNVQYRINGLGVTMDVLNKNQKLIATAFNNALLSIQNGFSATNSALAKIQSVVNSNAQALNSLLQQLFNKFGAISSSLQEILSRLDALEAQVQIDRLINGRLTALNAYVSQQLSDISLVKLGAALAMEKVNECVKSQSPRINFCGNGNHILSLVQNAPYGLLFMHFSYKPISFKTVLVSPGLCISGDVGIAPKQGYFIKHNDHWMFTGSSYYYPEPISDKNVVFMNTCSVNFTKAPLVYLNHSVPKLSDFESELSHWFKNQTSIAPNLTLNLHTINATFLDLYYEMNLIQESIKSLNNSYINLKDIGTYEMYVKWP

In assay [4] the target is T2, MERS spike protein (MERS-CoV, UniProt K9N5Q8 18-1296).
T2 chain: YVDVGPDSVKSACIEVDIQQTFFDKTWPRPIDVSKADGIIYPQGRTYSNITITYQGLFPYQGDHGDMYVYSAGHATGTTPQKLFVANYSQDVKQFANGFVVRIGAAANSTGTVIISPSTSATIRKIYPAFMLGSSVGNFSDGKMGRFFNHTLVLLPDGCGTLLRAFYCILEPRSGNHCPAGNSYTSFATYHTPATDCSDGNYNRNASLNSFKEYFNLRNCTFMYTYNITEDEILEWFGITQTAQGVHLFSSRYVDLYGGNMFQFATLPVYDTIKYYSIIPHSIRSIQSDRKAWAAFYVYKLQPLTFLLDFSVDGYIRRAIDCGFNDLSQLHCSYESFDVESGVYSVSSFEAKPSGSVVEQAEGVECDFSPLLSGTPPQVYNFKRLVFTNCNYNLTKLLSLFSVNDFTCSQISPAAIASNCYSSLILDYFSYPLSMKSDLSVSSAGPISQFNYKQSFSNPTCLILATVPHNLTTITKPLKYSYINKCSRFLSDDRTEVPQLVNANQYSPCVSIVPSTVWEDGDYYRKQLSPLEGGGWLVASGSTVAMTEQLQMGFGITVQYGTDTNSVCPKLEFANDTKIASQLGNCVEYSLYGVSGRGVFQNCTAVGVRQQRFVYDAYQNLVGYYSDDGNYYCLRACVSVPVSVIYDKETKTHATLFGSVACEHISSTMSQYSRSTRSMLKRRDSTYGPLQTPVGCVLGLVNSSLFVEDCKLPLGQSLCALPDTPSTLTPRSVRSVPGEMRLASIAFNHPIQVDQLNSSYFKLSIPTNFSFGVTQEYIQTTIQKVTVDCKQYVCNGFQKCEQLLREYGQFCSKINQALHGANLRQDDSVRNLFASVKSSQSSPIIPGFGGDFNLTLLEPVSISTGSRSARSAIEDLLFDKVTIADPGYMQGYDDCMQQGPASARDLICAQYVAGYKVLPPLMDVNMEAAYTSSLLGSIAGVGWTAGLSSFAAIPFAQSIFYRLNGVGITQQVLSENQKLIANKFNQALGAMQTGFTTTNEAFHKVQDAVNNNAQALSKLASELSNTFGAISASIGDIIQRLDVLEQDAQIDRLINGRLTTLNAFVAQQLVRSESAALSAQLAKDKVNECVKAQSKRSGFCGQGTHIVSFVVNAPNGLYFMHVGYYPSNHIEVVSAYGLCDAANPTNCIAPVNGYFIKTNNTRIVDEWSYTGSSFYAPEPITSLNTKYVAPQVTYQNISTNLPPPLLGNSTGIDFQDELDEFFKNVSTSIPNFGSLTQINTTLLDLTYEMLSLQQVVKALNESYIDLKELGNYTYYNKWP

The target of assay [5] is SARS-CoV-1 spike protein (SARS-CoV-1, UniProt P59594 14-1195).
The target of assay [6] is SARS-CoV-2 S2 domain (UniProt P0DTC2 686-1213).

B1: 4-N22-A (antibody, V domains shown)
VH: QVQLQQPGTELVKPGASVKLSCKASGYTFTNYWMYWVKQRPGQGLDWIGNINPSNGGTNYNEKFKSKATLTVDKSSSTAYMQLSSLTSEDSAVYYCARETGNYWGQGTTLTVSS
VL: DILMTQSPSSMSVSLGDTVSISCHASQGISSNIGWLQQKPGKSFKGLIYHGTNLEDGVPSRFSGSGSGADYSLTISSLESEDFADYYCVQYAQFPYTFGGGTKLEIK
Usually EC50 stands for the concentration at which the effect is half-maximal. A high value points to lower potency in that assay. Take B1: the EC50 in assay [1] worked out at 0.21 nM; in assay [2] it was 17.8 nM; in assay [3], 15.8 nM.

B2: 10-B11-A (antibody, V domains shown)
VH: QVQLQQPGAELVKPGASVKVSCKASGYTFTSYWMHWVKQRPGQGLEWIGRIHPSDSDTNYYQKFKGKATLSVDKSSSTAYMQLSSLTSEDSAVYYCAIPLYSYDNSGGYYPMDYWGQGTSVTVSS
VL: DIVMTQSQKFMSTSVGDRVTITCKASQNVRTAVAWYQQKPGQSPKKLIYLASNRHTGVPDRFTGSGSGTDFTLAISNVQSEDLADYFCLQHWNYPFTFGSGTRLEIK
Consider B2, for which the EC50 in assay [4] was over 200 nM; in assay [5], 20.8 nM; in assay [6] it was 1.13 nM; in assay [3], over 200 nM.
